From the nanobody polyreactivity screen of Harvey et al. (2022) come the findings set out here.

This data set can be described thus: yeast display, Sf9 membrane polyspecificity reagent, FACS + sequencing; frameworks hold sequencing errors. The essentials: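 Sorting gates, low and high (top ~1%), were placed on anti-HA fluorescence to track expression and on streptavidin fluorescence to track reagent binding. A clone's polyreactivity label is taken from the gate it came out of. The reagent was 10% biotinylated, detergent-solubilized Sf9 membrane, applied for 1 hour at 4 °C to galactose-induced yeast display cells.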
“QVQLVESGGGLVQAGGSLRLICDASGRIFQFYAMGWYRQAPGKERELVAVITRRGGSTHYADSVKGRFTISRDNAKNTVYLQMNSLNPEDTAVYYCAAEWQTQGYEYWGQGTQVTVSS”: the “polyreactivity (PSR sort gate)” value is “high polyreactivity”.

As to “QVHLVESGGGLVQAGGSLRLSCAASGRIFYYYAMGWYRQAPGKERELVAGITITDASTYYADSVKGRFTISRDYAKNTVYLQMNSLKPEYTAVYYCNAVRYWEGRRYYYWGQGTQVTVSS”, the “polyreactivity (PSR sort gate)” value is listed as “high polyreactivity”.

Take “QVQLVESGVGLFQAGGSLRLTCAASGSTFYLNDMGWYRQAPAKERELVAAIDWSGGSTYYADSVKGRFTNSRDNAKYYGYLQMNSLTPEDTAVYYCAARLFYEWRRLDYFIAWDYWGHGTQVTVSS”: the “polyreactivity (PSR sort gate)” value is “low polyreactivity”. Next, “QVHLVESGGGLVLAGGSLRLSCAASGSTLHLYAMGWYRQAPGKERELVADITSGGDTYYADSVKGRFTISRDNAKNTVYFQMNSLKPEDTAVYYCAAGPVYDWRGGALRYYYWGQGTQVSVSS”: “high polyreactivity”; “QVQLEESGGGLVQAGGSLRLSCAASGNTFYKYTMGWYRQAPGKERELLAAITWSGGSTYYADSVKGRFTISRDNAKNTVYLQMNSLKPEDTAVYYCNADDYQYKTWYHLDYWGQGTQVTVSS”: “low polyreactivity”. Under “QVQLVESGGGLLQAGGSLRLSCAASGSIFSRYVMGWYRQAPGKERELVAGISGSGGSTYYADSVKGRFTISRDNAKNTVYLQMNSLKPEDTAVYYCNAATSRLYYNHYTRYNYWGQGTQVTVSS” stands “high polyreactivity”; under “QVQLVESGGGLVQAGGSLRLSCAASGSIFSSYAMGWYRQAPGKERELVAAISSSGDSTYADSVKGRFTISRDNAKNTVYLQMISLKPEDTAGYYCAVGGAGSDDYWGQGTQVTVSS”, “low polyreactivity”; under “QVQLVESGGGLVQAGGSLRLSCAASGSIYVNAMGWYRQEPGKERELVAVISKSGGSTYYADSVKGRFTISRDNAKNTVYLQMNSLKPEDTAVYYCATRGVSPSRPGYYWGQGTKVTVSS”, “high polyreactivity”. Take “QVQLVESGGGIVQAGGSLRLSCAASGRTFYSSAMGWYRQAPGKERALVAAITSDGGTYYADSVKGRFTISRDNAKNTVYLQMNSLKPEDTAVYYCNTRDLYGYPQVTGYDYWGQGSQVTVSS”: the “polyreactivity (PSR sort gate)” value is “low polyreactivity”. Next, “QVQLVESGGGLVQAGGSLRLSCAASGFTFSRNDMGWYRQAPGKERELVASITTSGGGTYYADSVKGRFTISRDKAKNTVYLQMNSLKPEDTAVYYCAAEYYSIRYGPHSIEVYGMDYWGQGTQVTVSS”: “low polyreactivity”; “QVQLVESGGGLVQAGGSLRLSCAASGSTFERYVMGWYRQRQGKKWSWLPVLNHNGGSTYYADSVKGRFTISRDNAKNSVYLQMNSRKPEYTAVYYCAKDGLNESQFPGNLRDYWGQGTQVNVSS”: “low polyreactivity”; “QVQLVESGGGLVQAGGSLRLSCAASGRIIRQYAMGWYRKAPGKERELVAVISAGGARTYYADSVKGRFTISRDNAKNTVYLQMNSLKPEDTEVYYCAAELPTSQYDYYYWGQGTQVTVSS”: “high polyreactivity”. With “QVQLVESGGGLVQAGGSLRLSCAASGRIFKQYTMGWYRQAPGKERELVAAITSSGAGTFYADSVKGRFTISRDNAKNTVYLQMNSLKPEDTAVYYCAASWSRRDRGFDYWGQGTQVTVSS”, the “polyreactivity (PSR sort gate)” value is “high polyreactivity”. “QVQLVESGGGLVQAGGSLRLSCAASGSTFYYNAMGWYRQAPGKERELFAAITFTGGSTYADSVKGRFTISRDNAKNTVYLQMNSLKPEDTAVFYCAATIQGHDYLGSGYDYWGQGTQVTVSS”: the “polyreactivity (PSR sort gate)” value is given as “low polyreactivity”. Next, “QVQLVESGGGLVQAGGSLRLSCAASGSIFGKYTMGWYRQAPGKERELVAGITYRAGSTYYADSVKGRFTISRDNAKNTVYLQMNSLKPEDTAVYYCAARFYFRWYYYGSYANYWGQGTQVTVSS”: “high polyreactivity”; “QVQLVESGGGLVQAGGSLRLSCAASGGTFVRNTMGWSRQAPGKERELVAGITKNGGSTYYADSVKGRFTISRDNAKNTVYLQMNSLKPEVTAVYYCAIYVSWPLYYYWGQGTQVTVSS”: “low polyreactivity”. For “QVHLVESGGGLVQAGGSLRLSCAASGIFSRYAMRWYRQAPGKERELVDAISSGDSTNYADSVKGRFTISRDNAKNTVYLQMNSLKPEDTAVYYCATERSHLASGQGYYYVQTFYYWGQGTKVTVSS”, the “polyreactivity (PSR sort gate)” value is “low polyreactivity”. For “QVQLVESGGGLVQAGGSLRLICAASRFYTMGWYRQATVKERELVAAISWSGGDTYYADSVKGRFTISRDNAKNTVYLQMNSLKPEDTAVYYCAKKTIGSYVHEPFYYWGQGTQVTVSS”, the “polyreactivity (PSR sort gate)” value is “low polyreactivity”. Under “QVQLVESVGGLVQAGGSLRLSCAASGLIFSRYAMGWYRQAPGKERELVAAITSGTSTYYADSVKGRFTISRDNAKNTVYLQMNSLKPEDTAVYYCARRYRGGYKYDYWGQGTQVTVSS” stands “high polyreactivity”; under “QVHLVESGGGLVQAGGSLRLSCAASGRIFNSYAMGWYRQAPGKERELVAAISRNGGITYYADSVKGRFTISRDNAKNTVYLQMNSLKPEDTAVYYCNADCSRRRYSSDYWGQGTQVTVSS”, “high polyreactivity”; under “QVQLVESGGGLDQAGGSLRLSCAASGFIFDYYAMGWYRQAPGKERELVAAISWDGDSTNYADSVKGRFTISRDNAKNTVYLQMNSLKPEDTAVYYCNADEQLVDGWFFRYDYWGQGTQVTVSS”, “low polyreactivity”. With “QVQLVESGGGLVQAGGSLRLSCAASGFTFTINAMGWYRQAPGKERELVAAINWRGGSTYYADSVKGRFTISRDNAKNTVYLQMNSLKPEDTAVYYCNAVASIYSYAYPPYWGREHLNYWGQGTQVTVSS”, the “polyreactivity (PSR sort gate)” value is “low polyreactivity”. Next, “QVQLVESGGGLVQAGGSLRLSCAASGSTLISYTMGWYRQAPGKERELVAAITSAVTTYYADSVKGRFTISRDNAKNTVYLQMNSLIPEDTAVYDCNAVPDTRSGELDYWGQGTQVTVSS”: “low polyreactivity”; “QVQLVESGGGLVQAGGSLRLSCAASGFIFTGYAMGWYRQAPGKERELVAAITKSGGSTYYADSVKGRFTISRDNAKNTVYLQMNSLKPEDTAVYYFNTYLWRWSKGGYLGQGTQVTVSS”: “high polyreactivity”. Take “QVQLVESGGGLVQAGGSLRLSCAASGSTFTYYTMGWSRQAPGKERELVAASSRTTGSTYYADSVKGRFTISRDNAKNTVYLQMNSLIPEDTAVYYCAAQSYKILLYFIGTAGDGYWGQGTQVTVSS”: the “polyreactivity (PSR sort gate)” value was “low polyreactivity”.

As for “QVQLVESGGGLVQAGGSLRLSCAASGRTFGYNTMGWYRQAPGKERELVARITWSGASTYYADSVKGRFTISRDNAKNTVYLQMNSLKPEDTAVYYCNTAYTVSWRSPYDYWGQGTQVTVSS”, the “polyreactivity (PSR sort gate)” value is reported as “high polyreactivity”. On to “QVQLVESGGGLVQAGGSLRLSCAASGRNFFANAMGWYRQAPGKERELVASITRRSGGTYYADSVKGRFTISRDNAKNTVYLQMISLKPEDTAVYYCAARYTFPKDLYYYWGQGTQVTVSS”, for which the “polyreactivity (PSR sort gate)” value is “high polyreactivity”. Next, “QDQLVESWGGLVQAGGSLRLSCAASGFTFRNNAMGWYRHAPWKERDLVASITARGGSTYYADTVKGRFTISRDNAINTVYVQLNILKTEDTAVYYSATDDYTWRRHPWYAGYDSWGQGTQVTVSS”: “low polyreactivity”; “QVQLVESGGGLVQAGGSLRFSCAASGSIFWSNAMGWYRQAPGKERELVAAITTSDGSTYYADSVKGRFTISRDNAKNTVYLQMNSLKPEDTAVYYCAADTYYVSYGYYYWGQGTQVTVSS”: “low polyreactivity”; “QVQLVESGGGLVQAGGSLRLSCAASGSTFRPNAMGWYRQAPGKERELVAGISLNGTSTYYADSVKGRFTISRDNAKNTVYLQMNSLKPEDTAVYYCAADYQCGRGAEPYVFFDPEMDYWGQGTQVTVSS”: “low polyreactivity”. Under “QVQLVESGGGLVQAGGILRLSCGASGIIFDGYAMGWSRQAPGKERELVAAIDGTGDSTYYADSVKGRFTISRDNAKNTVYLQMNSLKPEDTAVYYCGAEYDYRWWYGYDYWGQGTQVTVSW” stands “high polyreactivity”; under “QVQLVESGGGLVQAGGSLRLSCAASGFTFDYNGLGWYRQAPGKERELVAGIRWSGGSTYYADSVKGRFTISRDNAKNTVYLQMNSLKPEDTAVYYCATSQYGYRSWPGLYYWGQGTQVTVSS”, “low polyreactivity”. Next, “QVQLVESGGGLVQAGGSLRLSCAASGRIFYRYTMGWYRQAPGKERELVAAITRSGSSTRYADSVKGRFTISRDYAKNTVYLQMNSLKPEDTAVYYCATRVTSRTSGFDYWGQGTQVTVSS”: “high polyreactivity”; “QVQLVESGGGLVQAGGTLRLSCAASGPILSRNAMAWYRQAPGKERELVAAISRSGGSTYYADSVKGRFTISRDNAKNTVYFQMNSLKPEDTAVYYSATRYMGRLDYWGQGTQVTVSS”: “high polyreactivity”. Turning to “QVQLVESGGGLVQAGGSLRLSSAASGSTFRYNTMGWYRQAPGKERELVAAINISSSSTYYADSVKGRFTISRDNAKNTVYFQINSLKPEDTAVYYCAKRDYVPIATDENDDYWGQGTQVTVSS”, the “polyreactivity (PSR sort gate)” value is “low polyreactivity”. Next, “QVQLVESGGGLVQAGGSLRLSCAASGSIFEVDALGWYRQAPGKERELVAAITSSDITYYADSVKGRFTISRDHAKTTVYLQMNSLKPEDTAVYYCNGEPPYRVKRSDYWGQGTQVTVSS”: “low polyreactivity”; “QVQLVESGGGLVQAGCSLGISCAASGSTVRGNAMGWYRQAPGKEREFVAAITVSGGSTYYADSVKGRFTLSRDNAKINVYVEMNSLKPEDNAVYYCAASVYKGWPTHYDYWGQGTQVTVSS”: “high polyreactivity”. Turning to “QVQLVESGGGLVQAGGSLRLSCAASGSIFGFNAMGWYRQAPGKEREFVAAISKSGGSTYYADSVKGRFTISCDNAKNTVYLQMNSLKPEDTAVYYCNAKSRHYEPYDYWGQGTQVTVSS”, the “polyreactivity (PSR sort gate)” value is reported as “high polyreactivity”. Next, “QVQLVESGGGLVQAGGSLRLSCAASGSTFLHSAMGWYRQAPGKEREFTYYADSVKGRFTISRDNAKNTVYLQMHSLKPEDTAGYYCNAGPYWSPYGDDVGYWGQGTQVTVSS”: “low polyreactivity”; “HVQLVESGGGLVQAGGSLRLSCAASGGIFFDNAMGWYRQGPGKERELVAAIRGDSGSTYYADSVKGRFTISRDNAKNTVYLQMNSLKPEDTAVYYCAAALRDYYPGGEYYSQYEYWGQGTQVTVSS”: “low polyreactivity”.
